According to PMC11947619, “Molecular mechanism of Mad2 conformational conversion promoted by the Mad2‐interaction motif of Cdc20” (Protein Science : A Publication of the Protein Society, 2025):

B1: Mad2^LL: loop‐less Mad2: residues 109–117 (…) replaced with GSG (protein)
chain: MALQLSREQGITLRGSAEIVAEFFSFGINSILYQRGIYPSETFTRVQKYGLTLLVTTDLELIKYLNNVVEQLKDWLYKCSVQKLVVVISNIESGEVLERWQFDIECDKGSGEKSQKAIQDEIRSVIRQITATVTFLPLLEVSCSFDLLIYTDKDLVVPEKWEESGPQFITNSEEVRLRSFTTTIHKVNSMVAYKIPVND
modifications: left off: His6, N-terminal, state not stated | DoubleStrep, N-terminal, state not stated
notes: loop‐less Mad2: residues 109–117 (…) replaced with GSG

Tests used:
O‐Mad2 = details: in vitro, ref Lad et al., [2009], Simonetta et al.; cited from earlier work
Source text: Juxtaposing the accessible Cdc20^MIM adjacent to O‐Mad2 by the MCC‐assembly scaffold involves the dimerization of an O‐Mad2 molecule with Mad1‐bound C‐Mad2 (Chen et al., [2023]; Fischer et al., [2022]; Lara‐Gonzalez et al., [2021]; Piano et al., [2021]).

[1] = Spontaneous O-Mad2 to C-Mad2 conversion / stability of the open state; type: physicochemical; details: NMR backbone assignment samples
Description: FIGURE 2 NMR fingerprinting of Mad2. (a) Structural orientations of Trp75 (on the αB helix) and Trp167 (on the “safety‐belt”) in Mad2 produce distinct indole NH resonances. […] NMR spectra for O‐Mad2^R133A and “empty” C‐Mad2^L13A/R133A and C‐Mad2^R133A:Cdc20^MIM‐111‐138 are from Fischer et al. ([2022]) (c) Mad2 conversion rates vary with different MIM peptides. Conversion was traced over 24 h at 25°C using the Trp75 and Trp167 side‐chain resonances as reporters. MIM peptides were added at two‐fold molar excess to Mad2 (100 μM). Each spectrum required 12 min of acquisition time, therefore the 15 min time‐points represent the earliest spectra in the time‐resolved series. The schematics show the conformation of Mad2 as indicated by the tryptophan side‐chain resonances. A black tick marks when conversion is considered complete. NMR data for O‐Mad2^R133A with and without Cdc20^MIM‐111‐138 shown are from Fischer et al. ([2022]). In the case of full‐length Cdc20, the MIM sequence is sequestered by an auto‐inhibitory intramolecular interaction within Cdc20 itself, which prevents it from being readily accessible for binding to C‐Mad2 (Piano et al., [2021]). Conversely, isolated MIM peptides lack this auto‐inhibitory mechanism, allowing them to bind directly to C‐Mad2 without obstruction. […]

Molecule	enhancement of O-Mad2 to C-Mad2 conversion rate by dimerization with C-Mad2 (O‐Mad2) [fold]	limited stability (slow O-Mad2 to C-Mad2 conversion) [1] [days]
C‐Mad2: Mad2 in the closed active state	3 to 4	
B1		< 3
